Data set [1] concerns the molecule itself. Briefly: SEC, non-reducing SDS-PAGE and TEM; self-association of rIgA duplexes into poly-rIgA. How it is done: Before running on SEC, samples were treated with the drugs at indicated concentrations at 37° C. for one hour.
(§1) In the meantime, the SEC column was also equilibrated with PBS supplemented with the reducing agent at the same concentration. For running SEC, 100 μL of the recombinant IgA (concentration varies between 1 mg/mL and 8 mg/mL) or purified native human IgA1 (˜1 mg/mL) was loaded to the column and UV absorption was recorded following elution. Recombinant IgA typically formed two elution peaks: a minor peak of ˜800 kDa poly-rIgA followed by a major peak of ˜170 kDa of monomeric rIgA. The ratios between poly-rIgA and mono-rIgA were calculated as between the corresponding areas under the curve (AUC), and the treatment effect of the thiol agents was judged by the reduction of the poly-rIgA level with a compensatory increase of the mono-rIgA content.
To further investigate specific cysteine residue(s) involved in IgA complexes, expression vectors were constructed to produce recombinant IgA (rIgA) Fc segments of rat and human sequences (FIG. 2, part A) as discussed above. Rat IgA analogs were expressed in BL21 DE3 strain of E. coil and recombinant protein were purified from the bacterial lysate using Histrap HP columns (GE Healthcare) by running fast protein liquid chromatography (FPLC). […]
On the technique in general: Size exclusion chromatography separates by hydrodynamic size, large species first.

Data set [2] concerns the molecule itself. Briefly: SEC, self-association into poly-rIgA. How it is done: as §1
Considering that the fragment contained Cys311 and Cys471 that, in the absence of J-chain and SC, were in their free forms and available for connecting other rIgA units, mutagenesis studies were conducted of these two cysteines. Cys311 and Cys471 were either individually, or together, mutated to serine (S) as discussed above. […] By examining the SEC traces of these mutants, it was noticed that, while the monomers of all variants appeared the same, there were dramatic differences in the poly-rIgA contents. […] Meanwhile, C311S-alone still had poly-rIgA contents, albeit eluted at a different time in SEC than the wild-type protein (FIG. 3, part F). […]

Data set [3] deals with the molecule itself. Briefly: SEC, self-association into poly-rIgA1.

B1: wild-type rat IgA-Fc segment of CH2-CH3-TP (recombinant rat rIgA) (other)
chain: SCSLVCRPRLSLQRPALEDLLLGSEASLTCTLRGLKEPTGAVFTWQPTTGKDAVQKEAVQDSCGCYTVSSVLPGCAERWNNGETFTCTATHPEFETPLTGEIAKVTENTFPPQVHLLPPPSEELALNELVSLTCLVRGFNPKDVLVRWLQGNEELPSESYLVFEPLREPGEGAITYLVTSVLRVSAETWKQGAQYSCMVGHEALPMSFTQKTIDRLSGKPTNVNVSVIMSEGDGICY
notes: Expressed in E. coli BL21 DE3; Two chains form a duplex called mono-rIgA; poly-rIgA is its disulfide-linked self-aggregate; also called mono-rIgA; poly-rIgA; not shown: N-terminal 6xHis-tag from the PET30a vector
B1: the binding result in data set [1] was “binds”.

B2: rat rIgA C311S single mutant (other)
chain: SCSLVCRPRLSLQRPALEDLLLGSEASLTCTLRGLKEPTGAVFTWQPTTGKDAVQKEAVQDSCGCYTVSSVLPGSAERWNNGETFTCTATHPEFETPLTGEIAKVTENTFPPQVHLLPPPSEELALNELVSLTCLVRGFNPKDVLVRWLQGNEELPSESYLVFEPLREPGEGAITYLVTSVLRVSAETWKQGAQYSCMVGHEALPMSFTQKTIDRLSGKPTNVNVSVIMSEGDGICY
notes: also called C311S-alone; not shown: N-terminal 6xHis-tag from the PET30a vector
Regarding B2, the binding result in data set [2] was “binds”.

B3: human rIgA1-Fc (human IgA1-Fc CH2-CH3-TP) (other)
chain: SCCHPRLSLHRPALEDLLLGSEANLTCTLTGLRDASGVTFTWTPSSGKSAVQGPPERDLCGCYSVSSVLPGCAEPWNHGKTFTCTAAYPESKTPLTATLSKSGNTFRPEVHLLPPPSEELALNELVTLTCLARGFSPKDVLVRWLQGSQELPREKYLTWASRQEPSQGTTTFAVTSILRVAAEDWKKGDTFSCMVGHEALPLAFTQKTIDRLAGKPTHVNVSVVMAEVDGTCY
notes: Produced in HEK293 cells, secreted; also called hu-rIgA; wild-type rIgA1; not shown: 6xHis-tag at the N-terminus after the IL-2 signal peptide (secreted)
As for B3, the binding result in data set [3] was “binds”.

The record behind these values is patent US20220110894A1 (ACCUBIT LLC BIOTECHNOLOGY, published 2022).
